One experiment deals with T1, p63γ (Homo sapiens, UniProt Q9H3D4).
T1 construct: expressed in transfected cells; host or cells: Saos-2
T1 sequence (Q9H3D4 1-487 isoform Q9H3D4-5): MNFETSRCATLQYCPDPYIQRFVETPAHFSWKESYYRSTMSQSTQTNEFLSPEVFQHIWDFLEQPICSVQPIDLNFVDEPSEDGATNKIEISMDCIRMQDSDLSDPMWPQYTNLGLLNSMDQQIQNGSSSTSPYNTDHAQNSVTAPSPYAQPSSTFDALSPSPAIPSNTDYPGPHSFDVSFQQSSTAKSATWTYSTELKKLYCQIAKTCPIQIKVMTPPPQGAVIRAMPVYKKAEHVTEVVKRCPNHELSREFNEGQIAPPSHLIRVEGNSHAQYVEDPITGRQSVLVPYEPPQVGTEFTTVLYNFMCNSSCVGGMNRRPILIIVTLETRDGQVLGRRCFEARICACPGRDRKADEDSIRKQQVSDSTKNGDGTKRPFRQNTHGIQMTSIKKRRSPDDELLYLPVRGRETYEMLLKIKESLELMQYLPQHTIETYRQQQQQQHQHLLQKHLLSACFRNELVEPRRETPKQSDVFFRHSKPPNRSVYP
Briefly: Transient luciferase reporter assay of p63γ transactivation function. The class given is cell-based. The conditions noted are these: FIG. 14C. As to the method:
(§1) To determine the amount of protein expression, Saos-2 cells (5×10^5) were plated 24 hours prior to transfection in 6 cm dishes. […] To determine the amount of gene activation, after transfection, the cells were lysed in Reporter Lysis Buffer 16-24 hours post-wash and assayed using the Luciferase Assay kit (Promega, Wis.). The fold activation of a particular reporter was determined by the activity of the transfected plasmid above the activity of vector alone.
(§2) The expression level of transfected proteins was detected using 40 μg of the respective lysates using the antibodies V5, DX.5410, DO1, 4A4 and p73. […] Results were derived from at least three independent experiments.

Experiment [1] addresses T2, p73α (Homo sapiens, UniProt O15350).
T2 construct: expressed in transfected cells; host or cells: H1299 and Saos-2; part of the results from in vitro translation
T2 sequence (O15350 1-636): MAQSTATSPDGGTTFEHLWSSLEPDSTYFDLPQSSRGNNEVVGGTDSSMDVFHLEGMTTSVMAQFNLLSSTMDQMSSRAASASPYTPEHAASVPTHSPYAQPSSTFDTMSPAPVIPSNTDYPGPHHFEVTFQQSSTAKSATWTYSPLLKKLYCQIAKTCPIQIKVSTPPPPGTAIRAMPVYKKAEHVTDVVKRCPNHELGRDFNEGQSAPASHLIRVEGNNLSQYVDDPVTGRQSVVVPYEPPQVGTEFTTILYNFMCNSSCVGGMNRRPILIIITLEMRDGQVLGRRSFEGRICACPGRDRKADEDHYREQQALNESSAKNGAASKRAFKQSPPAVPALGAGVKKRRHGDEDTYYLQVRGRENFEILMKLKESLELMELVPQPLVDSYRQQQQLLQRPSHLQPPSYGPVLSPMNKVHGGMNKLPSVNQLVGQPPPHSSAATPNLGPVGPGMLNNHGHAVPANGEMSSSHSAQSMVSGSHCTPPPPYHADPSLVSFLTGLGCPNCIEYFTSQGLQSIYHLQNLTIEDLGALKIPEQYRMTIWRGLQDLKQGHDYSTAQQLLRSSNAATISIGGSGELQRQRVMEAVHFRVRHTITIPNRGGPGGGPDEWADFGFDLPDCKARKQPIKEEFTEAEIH
Briefly: Transient luciferase reporter assay of p73α transactivation function. The experiment is classed as cell-based. The conditions noted are these: for stimulation of the transactivation function of p73α on the Bax promoter: Example 16, FIGS. 14A and 14B; for transactivation function of p73α on the mdm2 promoter: FIG. 14C. On the procedure: as §1, §2

Another experiment concerns the target T3, E2F1 (Homo sapiens, UniProt Q01094).
T3 construct: expressed in transfected cells
The experiment can be described thus: Transient reporter assay of E2F1 transactivation function. The class given is cell-based. The conditions noted are these: co-expression with E2F1, FIGS. 2C and 2D.

The next experiment deals with U2OS and MCF7 cells. The experiment can be described thus: Apoptosis by FACS in U2OS and MCF7 cells expressing wild-type p53, with or without cisplatin. The experiment is classed as cell-based, human. The conditions noted are these: no cisplatin. On the procedure:
The transfected cells were gated, and the apoptotic cells identified by FACS as described in Example 6.
Before exposure to cisplatin (5 and 3 μg/ml respectively), U2OS and MCF7 cells were transfected with plasmids encoding HPV16 E6, iASPP, or 53BP2. Thirty hours later, cells were harvested and analysed as above.
Fragments from the 5′ ends of ASPP1, ASPP2 and iASPP cDNA were cloned into a mammalian expression vector in an antisense orientation and their ability to inhibit the protein synthesis determined in vitro. The antisense nucleic acid molecules were amplified by PCR on the respective plasmid clones using primers spanning the following nucleotide regions (relative to the initial ATG): −74 to 923; −253 to 839 and −37 to 536 for ASPP1, ASPP2 and iASPP respectively. The amplified segments were purified with the QIAquick PCR purification kit (QIAGEN) and ligated in the pcDNA3.1/V5-His TOPO vector (Invitrogen) according to the manufacturer's instructions.
U2OS and MCF-7 cells were transfected with the various expression plasmids prior to the treatment with cisplatin and analyzed using FACS as described above.
To determine the anti-apoptotic role of iASPP, both U2OS and MCF-7 cells were transfected with antisense iASPP and cells analyzed as described above. […] A small increase in apoptotic cells was consistently detected (FIG. 7D).

In experiment [2] the target is T2, p73α. The experiment can be described thus: Co-immunoprecipitation with p73α (in vitro translated; transfected H1299 and Saos-2 cells). The conditions noted are these: for interaction with p73α in vitro: in vitro translated proteins, FIGS. 12B and 12C; for interaction with p73α in vivo: transfected cells, FIGS. 13B and 13D. The experiment is classed as binding. As to the method: V5-tagged ASPP1 and ASPP2 proteins were in vitro translated with cold methionine using the TNT T7 Quick coupled Transcription/Translation System (Promega). Cell lysates were incubated at 30° C. for 1 hour and then immunoprecipitated with anti-V5 antibody on protein G agarose beads.
The agarose beads were added to the binding reactions and incubated on a rotating wheel at 4° C. for 16 hours. The beads were then washed with PBS. The bound proteins were released in SDS gel sample buffer and analysed by 10% SDS-polyacrylamide gel electrophoresis (PAGE). The gels were wet transferred on to Protran nitrocellulose membrane and the resulting blots were first incubated with primary antibody and subsequently with the appropriate secondary HRP conjugated antibody (Dako). The blot was exposed to hyperfilm following the use of ECL substrate solution (Amersham Life Science).
Cells were transfected with 1 μg of p63γ or p73α in the presence or absence of 10 μg of ASPP1 or ASPP2. Cell lysate (1 mg) was immunoprecipitated with an antiASPP1 or ASPP2 antibody (see Example 2 and 7). The immunoprecipitates were separated on an SDS gel and the presence of p63 or p73 on the immunoblots detected by mouse monoclonal antibodies 4A4 (Santa Cruz) and ER-15 (Neomarker) to p63 or p73, respectively. The presence of ASPP1 or ASPP2 was detected with antibodies YX.7 and DX5410, respectively.
In some methods, larger amounts of cell lysate (2 mg) were immunoprecipitated with rabbit antibodies ASPP1.88 or BP77 to ASPP1 and ASPP2, respectively. The expression of ASPP1, ASPP2, p63γ and p73α was detected as described above.

T3 sequence (Q01094 whole entry, species assumed): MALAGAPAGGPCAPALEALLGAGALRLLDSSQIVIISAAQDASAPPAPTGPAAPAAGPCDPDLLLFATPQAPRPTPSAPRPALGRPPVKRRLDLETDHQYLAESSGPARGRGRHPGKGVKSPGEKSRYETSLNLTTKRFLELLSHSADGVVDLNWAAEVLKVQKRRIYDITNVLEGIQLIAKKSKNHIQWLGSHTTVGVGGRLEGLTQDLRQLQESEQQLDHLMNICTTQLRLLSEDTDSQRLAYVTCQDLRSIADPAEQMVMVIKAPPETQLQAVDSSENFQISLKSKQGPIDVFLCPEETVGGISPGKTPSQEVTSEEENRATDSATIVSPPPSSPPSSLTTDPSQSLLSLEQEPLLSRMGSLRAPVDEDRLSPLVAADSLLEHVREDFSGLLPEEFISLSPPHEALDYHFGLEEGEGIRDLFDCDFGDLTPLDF

B1: ASPP2: full length 1128 amino acid protein, SEQ ID NO: 4 (protein, listed as Homo sapiens)
chain: MMPMFLTVYLSNNEQHFTEVPVTPETICRDVVDLCKEPGESDCHLAEVWCGSERPVADNERMFDVLQRFGSQRNEVRFFLRHERPPGRDIVSGPRSQDPSLKRNGVKVPGEYRRKENGVNSPRMDLTLAELQEMASRQQQQIEAQQQLLATKEQRLKFLKQQDQRQQQQVAEQEKLKRLKEIAENQEAKLKKVRALKGHVEQKRLSNGKLVEEIEQMNNLFQQKQRELVLAVSKVEELTRQLEMLKNGRIDSHHDNQSAVAELDRLYKELQLRNKLNQEQNAKLQQQRECLNKRNSEVAVMDKRVNELRDRLWKKKAALQQKENLPVSSDGNLPQQAASAPSRVAAVGPYIQSSTMPRMPSRPELLVKPALPDGSLVIQASEGPMKIQTLPNMRSGAASQTKGSKIHPVGPDWSPSNADLFPSQGSASVPQSTGNALDQVDDGEVPLREKEKKVRPFSMFDAVDQSNAPPSFGTLRKNQSSEDILRDAQVANKNVAKVPPPVPTKPKQINLPYFGQTNQPPSDIKPDGSSQQLSTVVPSMGTKPKPAGQQPRVLLSPSIPSVGQDQTLSPGSKQESPPAAAVRPFTPQPSKDTLLPPFRKPQTVAASSIYSMYTQQQAPGKNFQQAVQSALTKTHTRGPHFSSVYGKPVIAAAQNQQQHPENIYSNSQGKPGSPEPETEPVSSVQENHENERIPRPLSPTKLLPFLSNPYRNQSDADLEALRKKLSNAPRPLKKRSSITEPEGPNGPNIQKLLYQRTTIAAMETISVPSYPSKSASVTASSESPVEIQNPYLHVEPEKEVVSLVPESLSPEDVGNASTENSDMPAPSPGLDYEPEGVPDNSPNLQNNPEEPNPEAPHVLDVYLEEYPPYPPPPYPSGEPEGPGEDSVSMRPPEITGQVSLPPGKRTNLRKTGSERIAHGMRVKFNPLALLLDSSLEGEFDLVQRIIYEVDDPSLPNDEGITALHNAVCAGHTEIVKFLVQFGVNVNAADSDGWTPLHCAASCNNVQVCKFLVESGAAVFAMTYSDMQTAADKCEEMEEGYTQCSQFLYGVQEKMGIMNKGVIYALWDYEPQNDDELPMKEGDCMTIIHREDEDEIEWWWARLNDKEGYVPRNLLGLYPRIKPRQRSLA
In the case of B1, in the experiment with p63γ, the “transactivation function of p63γ on the mdm2 promoter” value is “failed to stimulate”. For the same molecule, in the experiment with p73α [1], the “stimulation of the transactivation function of p73α on the Bax promoter” value turned out to be 6 fold and the “transactivation function of p73α on the mdm2 promoter” value is reported as “failed to stimulate”. For the same molecule, the “transactivation function of E2F1 on cyclin A, b-myb and synthetic promoter 3×wt” value with E2F1 is “failed to stimulate”. In addition, in the experiment on U2OS and MCF7 cells, the “apoptosis on expression in cells with endogenous wild-type p53” value was “induced apoptosis”. Also, in the experiment with p73α [2], the “interaction with p73α in vitro” value was “co-immunoprecipitated”; the “interaction with p73α in vivo” value is “co-immunoprecipitated transfected p63γ and p73α”.

B2: ASPP1: Apoptosis Stimulating Protein 1, protein of SEQ ID NO: 2, expressed from a transfected plasmid (protein, listed as Homo sapiens)
chain: MMPMILTVFLSNNEQILTEVPITPETTCRDVVEFCKEPGEGSCHLAEVWRGNERPIPFDHMMYEHLQIWGPRREEVKFFLRHEDSPTENSEQGGRQTQEQRTQRNVINVPGDKRTEYGVGNPRVELTLSELQDMAARQQQQIENQQQMLVAKEQRLHFLKQQERRQQQSISENEKLQKLKERVEAQENKLKKIRAMRGQVDYSKIMNGNLSAEIERFSAMFQEKKQEVQTAILRVDQLSQQLEDLKKGKLNGFQSYNGKLTGPAAVELKRLYQELQIRNQLNQEQNSKLQQQKELLNKRNMEVAMMDKRISELRERLYGKKIQLNRVNGTSSPQSPLSTSGRVAAVGPYIQVPSAGSFPVLGDPIKPQSLSIASNAAHGRSKSANDGNWPTLKQNSSSSVKPVQVAGADWKDPSVEGSVKQGTVSSQPVPFSALGPTEKPGIEIGKVPPPIPGVGKQLPPSYGTYPSPTPLGPGSTSSLERRKEGSLPRPSAGLPSRQRPTLLPATGSTPQPGSSQQIQQRISVPPSPTYPPAGPPAFPAGDSKPELPLTVAIRPFLADKGSRPQSPRKGPQTVNSSSIYSMYLQQATPPKNYQPAAHSALNKSVKAVYGKPVLPSGSTSPSPLPFLHGSLSTGTPQPQPPSESTEKEPEQDGPAAPADGSTVESLPRPLSPTKLTPIVHSPLRYQSDADLEALRRKLANAPRPLKKRSSITEPEGPGGPNIQKLLYQRFNTLAGGMEGTPFYQPSPSQDFMGTLADVDNGNTNANGNLEELPPAQPTAPLPAEPAPSSDANDNELPSPEPEELICPQTTHQTAEPAEDNNNNVATVPTTEQIPSPVAEAPSPGEEQVPPAPLPPASHPPATSTNKRTNLKKPNSERTGHGLRVRFNPLALLLDASLEGEFDLVQRIIYEVEDPSKPNDEGITPLHNAVCAGHHHIVKFLLDFGVNVNAADSDGWTPLHCAASCNSVHLCKQLVESGAAIFASTISDIETAADKCEEMEEGYIQCSQFLYGVQEKLGVMNKGVAYALWDYEAQNSDELSFHEGDALTILRRKDESETEWWWARLGDREGYVPKNLLGLYPRIKPRQRTLA
B2: the “transactivation function of p63γ on the mdm2 promoter” value in the experiment with p63γ is “failed to stimulate”. For the same molecule, in the experiment with p73α [1], the “stimulation of the transactivation function of p73α on the Bax promoter” value is recorded as 3 fold and the “transactivation function of p73α on the mdm2 promoter” value is on record as “failed to stimulate”. In addition, the “transactivation function of E2F1 on cyclin A, b-myb and synthetic promoter 3×wt” value with E2F1 was “failed to stimulate”. Also, in the experiment with U2OS and MCF7 cells, the “apoptosis on expression in cells with endogenous wild-type p53” value is given as “induced apoptosis”. In addition, in the experiment with p73α [2], the “interaction with p73α in vitro” value was “co-immunoprecipitated”; the “interaction with p73α in vivo” value was “co-immunoprecipitated transfected p63γ and p73α”.
